Measurements published in article PMC11997821.

How the values were obtained:
[1] = target: BsaXI S subunit (476-residue specificity subunit of R.M.BsaXI) (Bacillus stearothermophilus); assay: SEC; Superdex75 column in NEB Diluent B; pooled, separately expressed RM and S subunits after chitin, DEAE, heparin and Source columns
[2] = target: BsaXI S subunit (476-residue specificity subunit of R.M.BsaXI) (Bacillus stearothermophilus); assay: single-particle EM, 2D classification of particles (negative stain and cryo-EM); DNA-free and DNA-bound BsaXI particles, twice selected

BsaXI RM subunit (916-residue RM fusion subunit of the Type IIB restriction-modification enzyme R.M.BsaXI)
stoichiometry N (RM subunits per S subunit) [1]: 2
stoichiometry N (RM subunits per S subunit) [2]: 2
